According to patent publication US20190153096A1 (COVAGEN, published 2019):

Target: T1, Human C1q (EMD Millipore) (human, UniProt P02745 23-245; P02746 28-253; P02747 29-245)
T1 construct: Bought protein; the three subunits are added from general knowledge
Assay: SPR (BIAcore), antibody immobilised on the chip, human C1q injected at 3.125-200 nM
Experimental: Antibodies were coated onto a CMS chip via amine coupling at coating density of 5000 RU Human C1q (EMD Millipore) was injected in running buffer (PBS pH7.4, 0.05% TWEEN-20) at 200 nM and three-fold serial dilutions thereof at a flow rate of 30 μl/min. Binding was recorded, and KD was determined by curve fitting using the BIAcore software using a steady-state affinity model.

T1 sequence (P02745 23-245 limits assumed, chain 1 of 3): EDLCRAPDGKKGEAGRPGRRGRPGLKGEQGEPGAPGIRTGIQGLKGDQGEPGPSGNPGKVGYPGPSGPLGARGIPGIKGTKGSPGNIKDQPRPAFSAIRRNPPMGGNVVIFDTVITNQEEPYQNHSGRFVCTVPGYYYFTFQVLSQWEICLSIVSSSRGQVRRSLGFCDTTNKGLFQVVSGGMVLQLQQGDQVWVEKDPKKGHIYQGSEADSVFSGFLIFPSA
T1 sequence (P02746 28-253 limits assumed, chain 2 of 3): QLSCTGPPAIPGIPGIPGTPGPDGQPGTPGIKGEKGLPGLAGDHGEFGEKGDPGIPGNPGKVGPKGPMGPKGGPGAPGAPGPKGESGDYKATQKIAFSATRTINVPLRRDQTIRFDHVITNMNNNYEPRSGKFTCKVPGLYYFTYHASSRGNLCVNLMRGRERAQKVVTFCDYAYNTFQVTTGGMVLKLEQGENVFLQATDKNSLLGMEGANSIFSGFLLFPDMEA
T1 sequence (P02747 29-245 limits assumed, chain 3 of 3): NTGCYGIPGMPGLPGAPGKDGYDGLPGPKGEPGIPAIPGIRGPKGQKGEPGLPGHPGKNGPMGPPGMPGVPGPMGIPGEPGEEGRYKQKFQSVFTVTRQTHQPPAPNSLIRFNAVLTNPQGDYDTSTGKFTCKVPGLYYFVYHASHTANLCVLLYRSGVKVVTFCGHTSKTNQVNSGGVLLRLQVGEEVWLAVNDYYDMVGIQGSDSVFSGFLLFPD

binding result: no binding (tested: 200 nM)
B1: mAb1 DANAPA IgG1 (antibody)
heavy: QVQLQQSGAELARPGASVKMSCKASGYTFTRSTMHWVKQRPGQGLEWIGYINPSSAYTNYNQKFKDKATLTADKSSSTAYMQLSSLTSEDSAVYYCASPQVHYDYNGFPYWGQGTLVTVSAASTKGPSVFPLAPSSKSTSGGTAALGCLVKDYFPEPVTVSWNSGALTSGVHTFPAVLQSSGLYSLSSVVTVPSSSLGTQTYICNVNHKPSNTKVDKKVEPKSCDKTHTCPPCPAPELLGGPSVFLFPPKPKDTLMISRTPEVTCVVVAVSHEDPEVKFNWYVDGVEVHNAKTKPREEQYASTYRVVSVLTVLHQDWLNGKEYKCKVSNKALAAPIEKTISKAKGQPREPQVYTLPPSREEMTKNQVSLTCLVKGFYPSDIAVEWESNGQPENNYKTTPPVLDSDGSFFLYSKLTVDKSRWQQGNVFSCSVMHEALHNHYTQKSLSLSPGK
light: QVVLTQSPAIMSAFPGEKVTMTCSASSSVSYMNWYQQKSGTSPKRWIYDSSKLASGVPARFSGSGSGTSYSLTISSMETEDAATYYCQQWSRNPPTFGGGTKLQITRTVAAPSVFIFPPSDEQLKSGTASVVCLLNNFYPREAKVQWKVDNALQSGNSQESVTEQDSKDSTYSLSSTLTLSKADYEKHKVYACEVTHQGLSSPVTKSFNRGEC
notes: mAb1 with D265A, N297A, P329A (EU); also called DANAPA Fc mutated mAb1
